Measurements published in patent publication WO2016171242A1 (dated 2016).

Tests used:
[1] = target: T1, human EPHB3 without signal sequence, FLAG-tagged, expressed from pFLAG-EPHB3 (human, UniProt P54753 38-998); experiment: flow cytometry on transfected 293F cells
T1 construct: not shown: FLAG tag supplied by the vector pFLAG-GW
T1 sequence: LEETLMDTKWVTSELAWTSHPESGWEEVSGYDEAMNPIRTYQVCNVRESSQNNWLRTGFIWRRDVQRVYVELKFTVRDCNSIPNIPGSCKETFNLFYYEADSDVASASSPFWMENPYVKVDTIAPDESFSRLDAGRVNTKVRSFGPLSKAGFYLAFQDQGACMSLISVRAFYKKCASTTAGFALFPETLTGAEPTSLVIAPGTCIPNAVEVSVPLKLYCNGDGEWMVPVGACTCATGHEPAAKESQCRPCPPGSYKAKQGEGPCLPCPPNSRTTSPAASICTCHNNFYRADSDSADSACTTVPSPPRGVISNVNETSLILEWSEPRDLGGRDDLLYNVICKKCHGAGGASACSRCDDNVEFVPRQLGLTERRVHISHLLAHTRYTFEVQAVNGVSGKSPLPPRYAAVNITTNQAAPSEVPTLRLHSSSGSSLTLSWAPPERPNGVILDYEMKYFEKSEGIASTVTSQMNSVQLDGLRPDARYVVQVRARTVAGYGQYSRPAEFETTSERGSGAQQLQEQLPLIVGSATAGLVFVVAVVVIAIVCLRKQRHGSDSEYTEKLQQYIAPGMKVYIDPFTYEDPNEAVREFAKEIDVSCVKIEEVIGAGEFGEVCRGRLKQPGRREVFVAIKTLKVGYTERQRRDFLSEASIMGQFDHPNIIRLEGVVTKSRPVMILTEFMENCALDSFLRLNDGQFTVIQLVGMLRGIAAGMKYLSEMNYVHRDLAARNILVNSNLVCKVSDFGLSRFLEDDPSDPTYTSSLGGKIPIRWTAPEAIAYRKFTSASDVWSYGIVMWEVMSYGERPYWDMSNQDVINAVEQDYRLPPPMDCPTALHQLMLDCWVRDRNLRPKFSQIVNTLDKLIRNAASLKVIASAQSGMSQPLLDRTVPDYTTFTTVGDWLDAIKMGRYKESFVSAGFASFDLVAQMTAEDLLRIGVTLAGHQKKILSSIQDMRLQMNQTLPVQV

[2] = target: T2, human EPHB4 without signal sequence, FLAG-tagged, expressed from pFLAG-EPHB4 (human, UniProt P54760 16-987); experiment: flow cytometry on transfected 293F cells
T2 construct: not shown: FLAG tag supplied by the vector pFLAG-GW
T2 sequence: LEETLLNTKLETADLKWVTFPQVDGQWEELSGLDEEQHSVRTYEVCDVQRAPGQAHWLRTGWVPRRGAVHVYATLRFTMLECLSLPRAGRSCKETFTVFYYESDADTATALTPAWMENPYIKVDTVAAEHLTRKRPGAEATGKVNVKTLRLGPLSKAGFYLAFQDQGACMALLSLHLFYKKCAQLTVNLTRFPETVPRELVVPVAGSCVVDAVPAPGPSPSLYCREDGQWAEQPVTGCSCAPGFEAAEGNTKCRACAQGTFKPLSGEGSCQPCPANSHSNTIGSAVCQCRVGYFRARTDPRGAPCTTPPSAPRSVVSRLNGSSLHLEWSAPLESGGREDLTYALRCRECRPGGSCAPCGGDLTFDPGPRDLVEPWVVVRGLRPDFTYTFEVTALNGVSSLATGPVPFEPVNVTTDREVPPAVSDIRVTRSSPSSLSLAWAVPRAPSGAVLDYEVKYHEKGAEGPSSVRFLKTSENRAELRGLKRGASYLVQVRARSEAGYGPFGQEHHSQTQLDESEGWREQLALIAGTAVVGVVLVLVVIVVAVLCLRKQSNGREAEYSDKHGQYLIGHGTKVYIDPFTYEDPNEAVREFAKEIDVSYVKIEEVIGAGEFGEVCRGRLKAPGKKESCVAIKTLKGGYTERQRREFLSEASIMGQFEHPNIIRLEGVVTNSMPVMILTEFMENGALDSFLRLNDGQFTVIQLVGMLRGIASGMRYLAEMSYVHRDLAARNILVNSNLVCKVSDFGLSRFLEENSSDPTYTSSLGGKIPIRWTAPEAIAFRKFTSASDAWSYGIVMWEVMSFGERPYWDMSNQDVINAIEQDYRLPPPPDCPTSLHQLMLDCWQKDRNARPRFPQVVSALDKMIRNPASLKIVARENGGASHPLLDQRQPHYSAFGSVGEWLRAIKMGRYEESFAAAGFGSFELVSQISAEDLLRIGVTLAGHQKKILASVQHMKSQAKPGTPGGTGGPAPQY

[3] = target: T3, human PTPRF isoform 2 without signal sequence, FLAG-tagged, expressed from pFLAG-PTPRF-2 (human, UniProt P10586 30-1907); experiment: flow cytometry on transfected 293F cells
T3 construct: not shown: FLAG tag supplied by the vector pFLAG-GW
T3 sequence (P10586 other isoform, or with tags, fused parts or gaps): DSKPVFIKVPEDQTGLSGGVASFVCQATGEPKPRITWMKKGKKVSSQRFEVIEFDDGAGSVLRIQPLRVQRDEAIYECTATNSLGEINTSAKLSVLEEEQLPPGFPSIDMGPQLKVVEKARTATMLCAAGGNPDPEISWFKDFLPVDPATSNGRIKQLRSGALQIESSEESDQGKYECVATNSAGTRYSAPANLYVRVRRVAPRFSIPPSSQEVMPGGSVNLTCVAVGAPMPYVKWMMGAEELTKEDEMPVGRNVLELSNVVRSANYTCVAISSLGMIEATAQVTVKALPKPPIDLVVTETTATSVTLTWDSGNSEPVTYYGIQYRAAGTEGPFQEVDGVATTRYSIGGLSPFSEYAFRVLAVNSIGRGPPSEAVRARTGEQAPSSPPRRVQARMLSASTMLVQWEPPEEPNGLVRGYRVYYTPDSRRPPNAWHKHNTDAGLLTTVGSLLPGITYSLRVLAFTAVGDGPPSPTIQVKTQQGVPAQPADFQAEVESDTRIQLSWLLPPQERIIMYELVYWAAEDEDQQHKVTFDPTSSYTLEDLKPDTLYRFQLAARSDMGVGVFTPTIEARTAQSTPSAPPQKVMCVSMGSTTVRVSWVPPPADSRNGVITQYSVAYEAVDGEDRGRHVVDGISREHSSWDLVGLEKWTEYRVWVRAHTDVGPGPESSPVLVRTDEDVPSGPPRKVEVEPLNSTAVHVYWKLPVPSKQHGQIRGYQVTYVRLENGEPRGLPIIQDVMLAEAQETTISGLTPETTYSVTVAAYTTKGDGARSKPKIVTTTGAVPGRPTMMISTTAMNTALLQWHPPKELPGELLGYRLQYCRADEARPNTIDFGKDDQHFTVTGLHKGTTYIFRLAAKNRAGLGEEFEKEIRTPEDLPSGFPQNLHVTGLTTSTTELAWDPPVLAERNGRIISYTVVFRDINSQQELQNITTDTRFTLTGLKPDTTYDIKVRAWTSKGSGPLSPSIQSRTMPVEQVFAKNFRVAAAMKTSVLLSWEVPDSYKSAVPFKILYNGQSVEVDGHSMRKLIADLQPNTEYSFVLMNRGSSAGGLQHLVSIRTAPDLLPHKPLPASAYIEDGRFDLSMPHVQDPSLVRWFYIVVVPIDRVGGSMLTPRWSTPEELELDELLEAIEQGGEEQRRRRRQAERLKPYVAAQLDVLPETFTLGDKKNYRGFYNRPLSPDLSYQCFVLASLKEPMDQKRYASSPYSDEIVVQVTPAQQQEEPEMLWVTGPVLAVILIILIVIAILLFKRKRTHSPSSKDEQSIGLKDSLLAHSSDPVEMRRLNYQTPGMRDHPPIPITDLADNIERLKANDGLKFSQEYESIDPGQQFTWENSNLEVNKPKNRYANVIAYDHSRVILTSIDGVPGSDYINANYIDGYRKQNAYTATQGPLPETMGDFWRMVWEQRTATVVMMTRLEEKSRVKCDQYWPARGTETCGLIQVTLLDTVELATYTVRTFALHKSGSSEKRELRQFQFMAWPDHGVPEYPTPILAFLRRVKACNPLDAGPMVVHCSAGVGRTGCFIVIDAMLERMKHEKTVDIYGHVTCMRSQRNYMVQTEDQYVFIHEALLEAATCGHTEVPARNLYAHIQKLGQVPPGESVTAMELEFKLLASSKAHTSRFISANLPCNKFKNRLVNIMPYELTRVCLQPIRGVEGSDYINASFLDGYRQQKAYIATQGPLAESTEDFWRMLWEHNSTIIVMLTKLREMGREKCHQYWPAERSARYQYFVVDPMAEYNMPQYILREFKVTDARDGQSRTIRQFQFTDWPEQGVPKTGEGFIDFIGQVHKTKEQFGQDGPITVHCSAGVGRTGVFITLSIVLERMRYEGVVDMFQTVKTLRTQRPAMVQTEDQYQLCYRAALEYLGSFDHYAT

[4] = target: T4, human EPHA7 without signal sequence, FLAG-tagged, expressed from pFLAG-EPHA7 (human, UniProt Q15375 28-998); experiment: flow cytometry on transfected 293F cells
T4 construct: not shown: FLAG tag supplied by the vector pFLAG-GW
T4 sequence (Q15375 28-998): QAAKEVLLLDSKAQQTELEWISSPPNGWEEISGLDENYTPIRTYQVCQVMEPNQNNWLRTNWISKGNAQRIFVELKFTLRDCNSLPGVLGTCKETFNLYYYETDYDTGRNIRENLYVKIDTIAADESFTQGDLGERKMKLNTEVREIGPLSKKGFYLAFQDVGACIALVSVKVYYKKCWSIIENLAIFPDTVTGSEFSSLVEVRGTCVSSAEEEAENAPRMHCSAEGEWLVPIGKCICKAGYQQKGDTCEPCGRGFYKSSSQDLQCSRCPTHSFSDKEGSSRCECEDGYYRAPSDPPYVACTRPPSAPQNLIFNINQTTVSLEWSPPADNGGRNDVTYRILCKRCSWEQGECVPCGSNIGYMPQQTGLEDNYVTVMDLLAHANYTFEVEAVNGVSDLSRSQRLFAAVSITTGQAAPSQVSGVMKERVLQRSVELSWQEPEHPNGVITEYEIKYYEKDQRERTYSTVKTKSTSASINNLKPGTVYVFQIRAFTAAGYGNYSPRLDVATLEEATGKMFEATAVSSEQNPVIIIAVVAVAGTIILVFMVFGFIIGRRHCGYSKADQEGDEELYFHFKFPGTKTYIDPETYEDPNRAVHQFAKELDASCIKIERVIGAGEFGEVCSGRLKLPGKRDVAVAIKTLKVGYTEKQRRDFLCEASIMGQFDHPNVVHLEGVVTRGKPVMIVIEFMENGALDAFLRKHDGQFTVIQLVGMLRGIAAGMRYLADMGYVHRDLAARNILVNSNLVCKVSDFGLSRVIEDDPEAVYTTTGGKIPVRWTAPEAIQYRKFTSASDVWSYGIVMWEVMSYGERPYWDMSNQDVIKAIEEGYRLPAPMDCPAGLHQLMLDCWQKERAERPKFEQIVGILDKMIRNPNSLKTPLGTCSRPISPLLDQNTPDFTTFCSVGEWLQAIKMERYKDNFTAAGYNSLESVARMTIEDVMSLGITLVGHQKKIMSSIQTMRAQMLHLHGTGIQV

[5] = target: T5, human EPHA4 without signal sequence, FLAG-tagged, expressed from pFLAG-EPHA4 (human, UniProt P54764 20-986); experiment: immunohistochemistry on formalin-fixed, paraffin-embedded 293F cells transiently expressing EPHA4; antibody at 2.5 μg/mL
T5 construct: also called EPHA4-expressing cells; not shown: FLAG tag supplied by the vector pFLAG-GW
T5 sequence (P54764 20-986): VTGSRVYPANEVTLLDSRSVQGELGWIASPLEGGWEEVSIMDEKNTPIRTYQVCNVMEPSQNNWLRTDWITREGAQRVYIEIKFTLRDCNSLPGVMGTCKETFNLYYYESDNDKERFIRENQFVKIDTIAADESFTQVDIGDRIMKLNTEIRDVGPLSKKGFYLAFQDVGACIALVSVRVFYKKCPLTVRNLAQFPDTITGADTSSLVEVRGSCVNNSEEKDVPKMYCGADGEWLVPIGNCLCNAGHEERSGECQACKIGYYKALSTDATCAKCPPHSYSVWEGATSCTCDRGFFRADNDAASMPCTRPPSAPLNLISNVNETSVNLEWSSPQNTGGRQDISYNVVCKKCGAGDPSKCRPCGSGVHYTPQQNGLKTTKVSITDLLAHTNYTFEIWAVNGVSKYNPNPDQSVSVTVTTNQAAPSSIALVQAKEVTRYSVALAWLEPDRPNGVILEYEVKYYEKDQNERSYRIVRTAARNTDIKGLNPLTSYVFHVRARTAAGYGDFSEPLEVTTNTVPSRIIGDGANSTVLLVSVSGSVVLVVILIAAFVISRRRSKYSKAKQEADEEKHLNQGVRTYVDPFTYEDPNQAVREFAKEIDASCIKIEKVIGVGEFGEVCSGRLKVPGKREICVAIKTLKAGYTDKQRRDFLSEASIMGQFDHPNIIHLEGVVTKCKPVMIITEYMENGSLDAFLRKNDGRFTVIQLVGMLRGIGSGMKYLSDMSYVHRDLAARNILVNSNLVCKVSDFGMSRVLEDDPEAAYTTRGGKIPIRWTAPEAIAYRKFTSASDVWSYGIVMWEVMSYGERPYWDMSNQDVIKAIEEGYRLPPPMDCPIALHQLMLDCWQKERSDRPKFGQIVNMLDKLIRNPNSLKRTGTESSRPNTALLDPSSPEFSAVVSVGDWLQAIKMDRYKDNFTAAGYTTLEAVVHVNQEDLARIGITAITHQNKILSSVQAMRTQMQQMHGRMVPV

B1: mouse anti-human EPHA2 antibody A205 (antibody, V domains shown)
VH: QIQLVQSGPELKKPGETVKISCKASGYTFTDYSMNWVKQAPGKGLKWMGWINTYTGEPTYADDFKGRFAFSLETSASTAYLQINNLKNEDTATYFCASPISLLRLLDYWGQGTTLTVSS
VL: DVVMTQTPLSLPVSLGDQASIPCRSSQSLVHSNGNTYLHWYLQKPGQSPKLLIYKVSNRFSGVPDRFSGSGSGTDFTLKISRVEAEDLGVYFCSQSTHVPWTFGGGTKLEIKR
notes: Mouse monoclonal antibody purified from hybridoma supernatant, isotype IgG2b; also called A205 antibody
[1]
  binding result: no binding
[2]
  binding result: no binding
[3]
  binding result: no binding
[4]
  binding result: no binding

B2: mouse anti-human EPHA2 antibody A201 (antibody, V domains shown)
VH: EVQLQQSGAELVKPGASVKLSCTVSGFTFKDTYVHWVKQRPEQGLEWIGRIDPANANTKYDPKFQGKASITADTSSNTAYLQLSSLPSEDTAVYYCAAYGKSAWFAYWGQGTLVTVSA
VL: DIQMTQTTSSLSASLGDRVTISCRASQDIGNYLNWYQQKPDGTVKVLIYYTSRLHSGVPSRFSGSGSGTDYSLTISNLEQEDIATYFCQQGHSLPPTFGGGTKLEIKR
notes: Mouse monoclonal antibody purified from hybridoma supernatant, isotype IgG1; also called A201 antibody
[1]
  binding result: no binding
[2]
  binding result: no binding
[3]
  binding result: no binding
[4]
  binding result: no binding
[5]
  binding result: binds
